B1: ZNF449 (parent)
chain: QLTGHQRIHSGEEPHKCPECGKRF
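Also: lentivirally expressed fusions sorted by FACS into six bins by GFP to DsRed ratio, PSI derived from sequencing read proportions per bin multiplied by bin number.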

In this data set the parent is B1. Kind of data set: protein stability index of a GFP-peptide fusion (GPS, HEK-293T) (PSI 1-6); higher = more stable. To be noted: c terminus: a fixed tail appended.
For the variant QLTGHQRIASGEEPHKCPECGKRF, the protein stability index is 3.57.
Turning to QLTGHQRITSGEEPHKCPECGKRF, the protein stability index was determined as 3.71.
Turning to QLTGHQRISSGEEPHKCPECGKRF, the protein stability index is 4.12.
On to QLTGHQRIRSGEEPHKCPECGKRF, for which the protein stability index amounted to 3.54.
For QLTGHQRIKSGEEPHKCPECGKRF, the protein stability index worked out at 3.81.
The figure for QLTGHQRICSGEEPHKCPECGKRF is 4.02; for QLTGHQRIVSGEEPHKCPECGKRF it is 4.48; for QLTGHQRIFSGEEPHKCPECGKRF it is 3.78.
With QLTGHQRIWSGEEPHKCPECGKRF the figure was 3.34; with QLTGHQRINSGEEPHKCPECGKRF, 4.13; with QLTGHQRILSGEEPHKCPECGKRF, 3.98.
The figure for QLTGHQRIGSGEEPHKCPECGKRF is 3.52; for QLTGHQRIISGEEPHKCPECGKRF it is 3.8.
Take QLTGHQRIESGEEPHKCPECGKRF: the protein stability index amounted to 4.61.
As to QLTGHQRIMSGEEPHKCPECGKRF, the protein stability index is 3.59.
The figure for QLTGHQRIDSGEEPHKCPECGKRF is 4.9; for QLTGHQRIPSGEEPHKCPECGKRF it is 4.28.
Turning to QCTGHQRIHSGEEPHKCPECGKRF, the protein stability index is 5.34.
The figure for QGTGHQRIHSGEEPHKCPECGKRF is 4.77; for QWTGHQRIHSGEEPHKCPECGKRF it is 4.53.
With QETGHQRIHSGEEPHKCPECGKRF the figure was 4.71; with QNTGHQRIHSGEEPHKCPECGKRF, 4.59.
The figure for QITGHQRIHSGEEPHKCPECGKRF is 3.1; for QDTGHQRIHSGEEPHKCPECGKRF it is 5.01; for QYTGHQRIHSGEEPHKCPECGKRF it is 3.66.
Turning to QPTGHQRIHSGEEPHKCPECGKRF, the protein stability index came to 4.89.
The figure for QSTGHQRIHSGEEPHKCPECGKRF is 4.6; for QMTGHQRIHSGEEPHKCPECGKRF it is 4.86.
QFTGHQRIHSGEEPHKCPECGKRF: the protein stability index came out at 3.89.
Regarding QQTGHQRIHSGEEPHKCPECGKRF, the protein stability index is 5.16.
Turning to QHTGHQRIHSGEEPHKCPECGKRF, the protein stability index is 4.58.
Take QKTGHQRIHSGEEPHKCPECGKRF: the protein stability index came out at 4.8.
Take QRTGHQRIHSGEEPHKCPECGKRF: the protein stability index is 4.33.
The figure for QATGHQRIHSGEEPHKCPECGKRF is 4.57; for QTTGHQRIHSGEEPHKCPECGKRF it is 4.64; for QVTGHQRIHSGEEPHKCPECGKRF it is 4.65.
The figure for LLTGHQRIHSGEEPHKCPECGKRF is 3.84; for DLTGHQRIHSGEEPHKCPECGKRF it is 3.45; for SLTGHQRIHSGEEPHKCPECGKRF it is 4.72.
For the variant KLTGHQRIHSGEEPHKCPECGKRF, the protein stability index worked out at 3.61.
On to WLTGHQRIHSGEEPHKCPECGKRF, for which the protein stability index was 2.03.
The figure for ILTGHQRIHSGEEPHKCPECGKRF is 3.3.
With FLTGHQRIHSGEEPHKCPECGKRF the figure was 2.09; with PLTGHQRIHSGEEPHKCPECGKRF, 3.96.
Consider ELTGHQRIHSGEEPHKCPECGKRF, for which the protein stability index stood at 3.42.
With ALTGHQRIHSGEEPHKCPECGKRF the figure was 4.5; with HLTGHQRIHSGEEPHKCPECGKRF, 3.69.
With YLTGHQRIHSGEEPHKCPECGKRF the figure was 2.71.
The figure for VLTGHQRIHSGEEPHKCPECGKRF is 3.76.
For the variant NLTGHQRIHSGEEPHKCPECGKRF, the protein stability index was found to be 4.09.
Turning to MLTGHQRIHSGEEPHKCPECGKRF, the protein stability index is 2.5.
Turning to GLTGHQRIHSGEEPHKCPECGKRF, the protein stability index stood at 4.83.
With CLTGHQRIHSGEEPHKCPECGKRF the figure was 4.74; with TLTGHQRIHSGEEPHKCPECGKRF, 4.31; with RLTGHQRIHSGEEPHKCPECGKRF, 3.87.
On to QLTGHQQIHSGEEPHKCPECGKRF, for which the protein stability index was 4.22.
With QLTGHQHIHSGEEPHKCPECGKRF the figure was 4.78; with QLTGHQLIHSGEEPHKCPECGKRF, 4.7; with QLTGHQYIHSGEEPHKCPECGKRF, 4.14.
Consider QLTGHQSIHSGEEPHKCPECGKRF, for which the protein stability index was 4.83.
The figure for QLTGHQGIHSGEEPHKCPECGKRF is 4.56.
The figure for QLTGHQKIHSGEEPHKCPECGKRF is 4.31; for QLTGHQMIHSGEEPHKCPECGKRF it is 4.43; for QLTGHQNIHSGEEPHKCPECGKRF it is 3.52.
The figure for QLTGHQVIHSGEEPHKCPECGKRF is 3.78; for QLTGHQTIHSGEEPHKCPECGKRF it is 4.74.
As for QLTGHQDIHSGEEPHKCPECGKRF, the protein stability index is 4.85.
The figure for QLTGHQAIHSGEEPHKCPECGKRF is 4.69; for QLTGHQIIHSGEEPHKCPECGKRF it is 4.58; for QLTGHQFIHSGEEPHKCPECGKRF it is 3.33.
In the case of QLTGHQPIHSGEEPHKCPECGKRF, the protein stability index was found to be 4.44.
As to QLTGHQCIHSGEEPHKCPECGKRF, the protein stability index came out at 5.01.
The figure for QLTGHQEIHSGEEPHKCPECGKRF is 4.08.
As to QLTGHQWIHSGEEPHKCPECGKRF, the protein stability index was determined as 3.36.
Regarding QLTGAQRIHSGEEPHKCPECGKRF, the protein stability index was found to be 3.17.
The figure for QLTGQQRIHSGEEPHKCPECGKRF is 3.65.
With QLTGEQRIHSGEEPHKCPECGKRF the figure was 4.56.
Turning to QLTGRQRIHSGEEPHKCPECGKRF, the protein stability index came out at 4.03.
Turning to QLTGKQRIHSGEEPHKCPECGKRF, the protein stability index amounted to 4.46.
With QLTGWQRIHSGEEPHKCPECGKRF the figure was 2.89; with QLTGGQRIHSGEEPHKCPECGKRF, 4.45.
The figure for QLTGSQRIHSGEEPHKCPECGKRF is 3.41.
As for QLTGIQRIHSGEEPHKCPECGKRF, the protein stability index turned out to be 4.18.
For QLTGYQRIHSGEEPHKCPECGKRF, the protein stability index came out at 2.92.
Consider QLTGCQRIHSGEEPHKCPECGKRF, for which the protein stability index is 4.86.
QLTGVQRIHSGEEPHKCPECGKRF: the protein stability index was found to be 3.56.
The figure for QLTGDQRIHSGEEPHKCPECGKRF is 4.38; for QLTGLQRIHSGEEPHKCPECGKRF it is 3.45; for QLTGTQRIHSGEEPHKCPECGKRF it is 4.08.
With QLTGNQRIHSGEEPHKCPECGKRF the figure was 3.73; with QLTGPQRIHSGEEPHKCPECGKRF, 4.48; with QLTGFQRIHSGEEPHKCPECGKRF, 2.94.
Take QLTGMQRIHSGEEPHKCPECGKRF: the protein stability index was determined as 3.67.
Regarding QLTNHQRIHSGEEPHKCPECGKRF, the protein stability index was 3.42.

Values taken from the supplement of paper PMC10567573.
